Sequences and labels used below:
B1: TpsB (natural protein, Aspergillus niger, UniProt Q00217 1-480, looked up)
chain: MAANGSSSEGDHRLLIVSNRLPITIRRSGGGKYEFSMSSGGLVTGLSGLSKTTTFQWYGWPGLEVPEDEIDSVKQRLQEEFNATPVFMDDKLADRHYNGFSNSILWPLLHYHPGEIVFDEAAWDAYREANRLFAKTIAHEAREGDLVWVHDYHLMLLPEVLREELAALGKNNIRIGFFLHTPFPSSEIYRILPVRSQLLRGVLQCDLIGFHTYDYARHFLSCCSHILGLVTTPSSVKFKDRSVAVGAFPIGIDPDKFTEGLKSPKVQNRIASLENKFQGTKLMVSVDRLDYIKGIPQKLHALEVFLSQHPEWVGKVVLVQVAVPSRQDVEEYQNLRAVVNELVGRINGKFGTVDYMPIHFMHKSVSFDELIALYAASDACVVSSTRDGMNLVSFEYVATQQKRKGVLILSEFAGAAQSLNGSIVVNPWNTEELASAYHEAVSMSDDLRAQKFEKLYKYISKYTSAFWGKSFVAELSKCST
notes: TpsB, putative trehalose-6-phosphate synthase of Aspergillus niger (Tps1 ortholog), gene tpsB, ANI_1_1078064; full-length cDNA / open reading frame; Cloned into both vectors; each fusion carries one of the two fragments (T25 or T18), not both; also called tpsB gene product; trehalose-6-phosphate synthase TpsB; source: bacterial two-hybrid fusion (pKT25 and pUT18C), in E. coli BTH101
B2: TpsA (natural protein, Aspergillus niger, UniProt Q00075 1-517, looked up)
chain: MPSLENPTFQNEARLLLVSNRLPITIKRSDDGRYDFSMSSGGLVSGLSGLSKSTTFQWYGWPGLEVPEEEIPVVKERLKQEYNAVPVFIDDELADRHYNGFSNSILWPLFHYHPGEITFDESAWEAYKEANRLFAKAVAKEVQDGDLIWVHDYHLMLLPEMLREEIGDSKENVKIGFFLHTPFPSSEIYRILPVRNELLLGVLHCDLIGFHTYDYTRHFLSACSRLLGLTTTPNGIEFQGKIIACGAFPIGIDPEKFEEGLKKEKVQKRIAMLEQKFQGVKLMVGVDRLDYIKGVPQKLHALEVFLSDHPEWVGKVVLVQVAVPSRQDVEEYQNLRAVVNELVGRINGKFGTVEFMPIHFLHKSVNFDELIALYAVSDACIVSSTRDGMNLVAYEYIATQKKRHGVLVLSEFAGAAQSLNGSIIINPWNTEELAGAYQEAVTMSDEQRALNFSKLDKYVNKYTSAFWGQSFVTELTRISEHSAEKFHAKKASFSDNNSENGEPSNGVETPAQEQVAQ
notes: TpsA, putative trehalose-6-phosphate synthase of Aspergillus niger (Tps1 ortholog), gene tpsA, ANI_1_1406074; full-length cDNA / open reading frame; Cloned into both vectors; each fusion carries one of the two fragments (T25 or T18), not both. cDNA from A. niger N402 background; also called tpsA gene product; trehalose-6-phosphate synthase TpsA; source: bacterial two-hybrid fusion (pKT25 and …)

Holding throughout (experiment): two-hybrid; bacterial adenylate cyclase two-hybrid (BACTH System Kit); pKT25 and pUT18C fusions co-transformed into E. coli BTH101; LB with ampicillin, kanamycin and 0.5 mM IPTG, 100 rpm, 20°C, 72 h; β-galactosidase assay as units/mg dry weight; three to four independent assays
Data set [1] has as its target B1.
Data set [2] deals with TpsC (Aspergillus niger).
For data set [3], the target named is TppA (Aspergillus niger).
Data set [4] deals with the molecule itself.
Data set [5] addresses B2. The conditions noted are these: partners not purified.

Molecule TppA (natural protein) yielded a β-galactosidase activity (two-hybrid) (units/mg dry weight bacteria) in data set [1] of 691.
Take TpsC (natural protein): the β-galactosidase activity (two-hybrid) (units/mg dry weight bacteria) came out at 1210 in data set [2] and 688 in data set [1].
As to B1, the β-galactosidase activity (two-hybrid) (units/mg dry weight bacteria) in data set [3] was 581; in data set [2], 441. The “β-galactosidase activity (two-hybrid)” value in data set [4] was 1780 units/mg dry weight bacteria; in data set [5], 1590 units/mg dry weight bacteria.
As for B2, the “β-galactosidase activity (two-hybrid)” value in data set [4] is 418 units/mg dry weight bacteria; in data set [1] (partners not purified), 1750 units/mg dry weight bacteria.

The values above are taken from publication PMC3991884, “Trehalose synthesis in Aspergillus niger: characterization of six homologous genes, all with conserved orthologs in related species” (BMC Microbiology, 2014).
